T1: human UHRF1 PHD finger, residues 299–366 (human, UniProt Q96T88 299-366)
T1 chain: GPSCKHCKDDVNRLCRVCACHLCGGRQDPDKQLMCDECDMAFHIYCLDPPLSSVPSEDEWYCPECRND


Biological target: T1, human UHRF1 PHD finger, residues 299–366
Test: ITC

| Binder | Kd |
| --- | --- |
| SRRGVRTALSVQREKMARLRYMLLGGVRTHERRPTNKE (domain or fragment) [hDPPA3_(81-118) L88A] | 1280 nM |
| SRRGARTLLSVQREKMARLRYMLLGGVRTHERRPTNKE (domain or fragment) [hDPPA3_(81-118) V85A] | 1610 nM |
